According to patent US10052364B2, “Osteocalcin as a treatment for cognitive disorders” (THE TRUSTEES OF COLUMBIA UNIVERSITY IN THE CITY OF NEW YORK, priority 2013, dated 2018):

Key:
aged WT mice = assay: ICV infusion in aged WT mice, Novel Object Recognition test; type: in vivo, mouse; settings: ICV 10 ng/hr for one month, 16 month old WT mice
Protocol: FIG. 9. Osteocalcin improves hippocampal function in aged wild-type (WT) mice. Constant and novel object investigation in the Novel Object Recognition test in 17 month old mice treated for 1 month with vehicle or 10 ng/hr recombinant uncarboxylated osteocalcin.
ICV pumps delivering (10 ng/hr) recombinant uncarboxylated full-length mouse osteocalcin were implanted in 16 month old WT mice. After an infusion period of one month, the mice were subjected to a modified version of the Novel Object Recognition test, to assay memory and hippocampal function. Briefly, mice were given five 5 minute exposures, with 3 minute resting intervals between exposures, to a novel arena containing two objects. During exposures 1-4, mice were habituated to these two objects, which elicited equal amounts of exploration. In the fifth exposure, one of the objects was replaced with a novel object.

[1] = Blood brain barrier crossing: subcutaneous osteocalcin infusion, content measured in blood, bone and parts of the brain by ELISA; type: in vivo, mouse; settings: subcutaneous pump, uncarboxylated osteocalcin 50 ng/hour, seven days, three-month-old Osteocalcin-/- mice
Protocol: FIG. 3. Osteocalcin binds to neurons in the brain. (A) Measurement of the total osteocalcin in 3 month-old Osteocalcin^−/− mice infused subcutaneously for 7 days with either uncarboxylated osteocalcin (300 ng/hour, right panel) or PBS (left panel). Osteocalcin levels were measured in bone, serum, and different parts of the brain (cortex, midbrain, hypothalamus, brainstem, and cerebellum). (B) Subcutaneous infusion of leptin ([…], right panel) or PBS (left panel) for 7 days in ob/ob mice. Leptin levels were measured in serum, cortex, midbrain, hypothalamus, brainstem, and cerebellum. […]
Osteocalcin^−/−, Gprc6a^−/−, Osteocalcin-mCherry, and Osteocalcin floxed mice have been previously described (Ducy et al., 1996, Nature 382:448-452; Oury et al., 2011, Cell 144:796-809). Mouse genotypes were determined by PCR. […] Leptin and osteocalcin content in sera and tissues were determined by ELISA.
To understand how this behavioral phenotype develops, whether osteocalcin crosses the blood brain barrier (BBB) was tested by installing pumps that subcutaneously delivered vehicle or uncarboxylated osteocalcin (50 ng/hour) in three-month-old Osteocalcin^−/− mice. […] Seven days later, osteocalcin and leptin content were measured in blood, bone, and in various parts of the brain in Osteocalcin−/− and ob/ob mice, respectively. […]

B1: uncarboxylated osteocalcin: Recombinant osteocalcin bacterially produced, cleaved from the GST subunit; completely undercarboxylated at all three sites (protein, listed as Homo sapiens)
chain: MRALTLLALLALAALCIAGQAGAKPSGAESSKGAAFVSKQEGSEVVKRPRRYLYQWLGAPVPYPDPLEPRREVCELNPDCDELADHIGFQEAYRRFYGPV
modifications: uncarboxylated
notes: Recombinant osteocalcin bacterially produced, cleaved from the GST subunit; completely undercarboxylated at all three sites
Aged WT mice
  discrimination between novel and constant objects: able to discriminate between the novel and constant objects
[1]
  osteocalcin concentration in brainstem, thalamus and hypothalamus relative to that observed in serum: ~50%
